This is an account of results in the supplement of paper PMC12764529.

± gives the half width of the 95% confidence interval.

A short description of series [1]: folding stability dG unfold from chymotrypsin proteolysis; higher = more stable. The method, then:
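Folding stability of de novo designed mini-proteins (<80 aa, no Cys; designed by TrROS, TrMRF, ProteinMPNN and the joint model) was measured by cDNA display proteolysis with trypsin and chymotrypsin. Each protease was used at 11 concentrations in a threefold dilution series plus a no-protease condition. K50 was inferred by Bayesian fitting of sequencing counts, and dG unfold was derived against a sequence-predicted unfolded-state K50 (Tsuboyama et al. method). Sequences shown include variable-length N-terminal GS-type padding (SAGGSAGG...) inside a display construct carrying a PA tag. Rows were kept only if the AF2 dimer inter-PAE was >15, to exclude likely homo-oligomers.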

Series [2] in a line: folding stability dG unfold (combined trypsin and chymotrypsin); higher = more stable. Summed up: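 Designed mini-proteins (under 80 residues, no cysteine) in a PA-tagged cDNA display construct were digested with trypsin and chymotrypsin. Each protease was used at 11 concentrations (threefold dilutions) plus a no-protease condition, followed by sequencing. K50 was inferred by Bayesian fitting of sequencing counts, and unfolding free energy was derived against a sequence-predicted unfolded-state K50 and a shared folded-state K50, per protease or combined. Only designs with AlphaFold2 dimer inter-PAE above 15 were kept.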

For “SAGGMTETATTTTTLPDGTVVTTGTTTVTEGSSTTTTTFTTVTTVAPVPPPPYPPAPLPWPEDPVLASAGGS [r8_269_JUSTAS]”, the “folding stability dG unfold” value in series [1] is 0.142 ± 0.15 kcal/mol; in series [2] it was below -1 kcal/mol.
The like results for “SAGGMTVTVPFTSEEELEAAIEAAPSSLTTVTTTDPARGLRRTLNVDPATRAVVETEEEAVDPEDPALSAGG [r13_945_JUSTAS]” were, in that order, -0.377 ± 0.14 kcal/mol and below -1 kcal/mol.
Regarding “SAGGPAGEEVPVRITARIYMPDPDGKMHSHEIPIDIPMPVDELKEKLIKEIMDEHGYHITEIDIEPYSAGGS [r16_511_TrROS]”, the “folding stability dG unfold” value in series [1] is -0.432 ± 0.21 kcal/mol; in series [2], -0.711 ± 0.25 kcal/mol.
In the same order, the values of “SAGGPDPYNLKVEEETYPNPDGGEMKIPKIEIPDGRLKIDMEMRNPGNGKEHEHEITIPVKPGQEIFISAGG [r13_190_TrROS]” are 0.906 ± 0.14 kcal/mol and 0.0459 ± 0.21 kcal/mol.
The like results for “SAGGPEKKILVARDSSDPNLPLEKIKEELEKKGFPPAEVTSAATEPLEKAREKAEKEGNPLIVLPVESAGGS [r16_94_JUSTAS]” were, in that order, -0.927 ± 0.32 kcal/mol and below -1 kcal/mol.
For “SAGGPIKRDPDGKIEIHYNEDNGRWHVKIRDPGKPKKEREFKSPDDANEFAKSFANDGWKIDKVEPYPSAGG [r13_727_TrROS]”, the “folding stability dG unfold” value in series [1] was 1.08 ± 0.25 kcal/mol; in series [2], 0.834 ± 0.32 kcal/mol.
The like results for “SAGGPISVGEIEHAADNVDNSHQNGDPNEMMELYDEAEEIQDQYEENGDPEVRDEVKKVVERAKRHMGSAGG [r13_137_TrROS]” were, in that order, 0.364 ± 0.077 kcal/mol and -0.423 ± 0.45 kcal/mol.
In the case of “SAGGPWHEITVRAKGPPGNTPEQAVDEVADELADNNPDFTVEIQEVEVNPEDGQVEATIRVEDGKIVSAGGS [r8_26_TrROS]”, the “folding stability dG unfold” value in series [1] is -0.0882 ± 0.034 kcal/mol; in series [2], below -1 kcal/mol.
The like results for “SAGGSADNENNENQKPKPKPKKKLEVTIPVPLPPGDSLEEAMEQAYNIANHLAQSGKLDEVEISIFSAGGSA [r15_450_TrROS]” were, in that order, -0.241 ± 0.4 kcal/mol and below -1 kcal/mol.
The like results for “SAGGSAEEEEITIKLRITVYNEETGKPVKEIEIEIKVKKGQTLEQILEEAKKLLEEKGYKIVEIEISAGGSA [r15_195_TrROS_Hall]” were, in that order, 4.42 ± 0.31 kcal/mol and 4.52 ± 0.46 kcal/mol.
On to “SAGGSAGGAEKIKKKLEELGFEIVKIEKESENKIKIYVKPDNPEKIKEIKEKISSSEVDEIGNESAGGSAGG [r6_83_TrMRF]”, for which the “folding stability dG unfold” value in series [1] is 0.486 ± 0.16 kcal/mol; in series [2], -0.27 ± 0.17 kcal/mol.
Turning to “SAGGSAGGAIAPGEEVEAEVTIVDPLTGKETTAKVTLTVHPTSVTITLPGGKPAVVPAAYVRFGSAGGSAGG [r6_436_TrMRF]”, the figures for the “folding stability dG unfold” value in series [1] and in series [2] were -0.176 ± 0.56 kcal/mol and -0.535 ± 0.4 kcal/mol, respectively.
Take “SAGGSAGGGGGFRVKAEVKHGGKEYPMEILIDPSEGNINIQMPNGKSITLPLNDVKIDEVEPVNSAGGSAGG [r6_185_TrROS]”: the “folding stability dG unfold” value in series [1] worked out at 0.341 ± 0.29 kcal/mol; in series [2], 0.101 ± 0.34 kcal/mol.
In the same order, the values of “SAGGSAGGGMTGATPTPRTVPLPGDRTATVYERPETGELLVELPGRRLRVSPAALAAGEVALEASAGGSAGG [r6_940_JUSTAS]” are 0.113 ± 0.22 kcal/mol and below -1 kcal/mol.
In the same order, the values of “SAGGSAGGGSMDPKVETEEFEEPGREVKREKLPDGLVVTEYTEPDGPKSTVVTDPETGKVTVIGSAGGSAGG [r6_159_JUSTAS]” are 0.653 ± 0.079 kcal/mol and 0.082 ± 0.15 kcal/mol.
The like results for “SAGGSAGGLKPGDTVTLPIEIWIMHMETKKDPNGDPEPRMEPYPYRIPITIPADDLNDGKITLTSAGGSAGG [r6_138_TrROS]” were, in that order, 0.0398 ± 0.46 kcal/mol and below -1 kcal/mol.
On to “SAGGSAGGLLPDQRVRLRLTRTSPDGEPEEATVELTNIPSSITPSSTLTFPGEGDTWEVEEITTSAGGSAGG [r6_560_TrMRF]”, for which the “folding stability dG unfold” value was -0.184 ± 0.21 kcal/mol in series [1] and below -1 kcal/mol in series [2].
The like results for “SAGGSAGGMSLEEAVEEAAAAVSPDETAEVVLTVEVSEPLTFPEPPDRLVTRPRTVRVRVRAPASAGGSAGG [r6_543_JUSTAS]” were, in that order, 0.488 ± 0.11 kcal/mol and 0.319 ± 0.19 kcal/mol.
